Columns and labels:
[1] = biological target: TAMRA-9J10Min peptide (5-TAMRA-GRRRN(p-Serine)N-acid) (Streptomyces avermitilis); experiment: fluorescence polarisation; His-14-3-3ε titrated against 10 nM TAMRA-p9J10Min; 10 mM HEPES, 150 mM NaCl, 0.05% Tween; room temperature
[2] = system: GFP-FOXO3a localization in U2OS-GFP-FOXO3a cells; experiment: FOXO3a relocalisation assay, small-molecule inhibitors, U2OS-GFP-FOXO3a; format: cell-based, human
Experimental: Cells were transfected with plasmid DNA or siRNA or treated with compounds and incubated for the indicated time. Cells were then fixed in a final concentration of 3.7% formaldehyde by addition of fixative directly to the medium for 10min, then stained with 4 μg/mL Hoechst 33,342 (Invitrogen). For testing of peptides in the U2OS-GFP-FOXO3a cell line, cells were transfected with plasmid DNA using FuGENE 6 (Promega, E2691) as described for the screen. For testing of peptides in the HEK293T cell line, cells were co-transfected with a plasmid encoding the test plasmid and a plasmid encoding GFP-FOXO3a using JetPRIME transfection reagent in 96-well plates. At the indicated time point, cells were then fixed and stained as described above. Leptomycin B was purchased from NEB. PI-103 and BEZ235 were purchased from Selleckchem. GSK690693 was purchased from Sigma. […] Average intensities were calculated for each region and the ratio between nuclear and cytoplasmic GFP-FOXO3a was then calculated. […] Results were then expressed as the percentage of cells with nuclear GFP-FOXO3a. […] Images were acquired and then analyzed using a range of nuclear:cytoplasmic ratios to identify a ratio which reproducibly gave the maximal window between DMSO and PI-103 treated cells. […] Median intensities were calculated for each region and the ratio between nuclear and cytoplasmic GFP-FOXO3a was then calculated.

9J10/14-3-3ε interaction = biological target: T1, 9J10/14-3-3ε interaction (Homo sapiens, UniProt P62258); experiment: FP competition, TAMRA-p9J10Min binding to 14-3-3ε; conditions: 10nM TAMRA-p9J10Min, 1.5μM His-14-3-3ε, room temperature 20 min; mean of 3 independent experiments +/- SD; read-out: IC50, FP competition (unlabelled peptide)
T1 construct: A synthetic gene construct encoding full length human 14-3-3ε; made in house; host or cells: E. coli BL21(DE3)
T1 sequence (P62258 1-255): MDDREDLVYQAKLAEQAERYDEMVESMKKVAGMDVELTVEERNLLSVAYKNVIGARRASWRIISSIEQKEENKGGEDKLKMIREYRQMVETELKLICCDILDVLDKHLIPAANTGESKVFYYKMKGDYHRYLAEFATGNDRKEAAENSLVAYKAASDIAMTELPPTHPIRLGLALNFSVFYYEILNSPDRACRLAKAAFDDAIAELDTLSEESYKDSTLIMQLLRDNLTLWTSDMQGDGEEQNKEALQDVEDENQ
Experimental: Protein purity was visualized by running SDS-PAGE. […] Compound dilution plates, black 384 well NBS assay plates and tip racks were loaded into the Cytomat as indicated by the scheduling software. […] Test compounds were diluted to 3X final concentration in the dilution plates. 10 μL of diluted compound was added into each well of the assay plate followed by 10μL of […]-3-3ε and 10μL of TAMRA-p9J10Min. Plates were incubated at room temperature for 20 min on the robot's deck or in the Cytomat before the Fluorescence Polarisation was read using the BMG PheraStar plate reader. Test compounds were assayed in triplicate. […] DMSO controls were run alongside all experimental compounds and % inhibition normalised to these controls. All other experimental conditions were as described above.

[3] = biological target: 6x His-14-3-3ε (full length human 14-3-3ε) (human) (UniProt P62258); experiment: fluorescence polarisation; competition: unlabelled 9J10 peptide titrated against 10 nM TAMRA-p9J10Min bound to 1.5 μM His-14-3-3ε; 10 mM HEPES, 150 mM NaCl, 0.05% Tween
[4] = biological target: 6x His-14-3-3ε (full length human 14-3-3ε) (human) (UniProt P62258); experiment: MST; 20 nM NT-647-labelled 14-3-3ε with cognate peptide (16-point dilution; 1 μM in the competitive assay with CU7218); 10 mM Hepes, 150 mM NaCl, 0.01% Tween 20; 25°C
[5] = system: transcriptome of HEK293T cells; experiment: RNA sequencing, differential gene expression; format: cell-based, human; conditions: 24 h
Experimental: HEK293T cells were transfected in T75 flasks with plasmid DNA encoding Vector, 9J10^WT, 9J10^AMut, GFP-FOXO3a-AAA or GFP, using JetRPIME transfection reagent. Cells were harvested 24 hr post-transfection. Five independent transfections on different days and using cells of different passage number were carried out for each condition.
Total RNA was isolated using the Qiagen RNeasy Mini Kit (#74104) complete with DNase digestion (Qiagen #79254), according to manufacturers instructions. RNA was submitted to Novogene for transcriptome sequencing. RNA degradation and contamination was monitored on 1% agarose gels. RNA purity was checked using the NanoPhotometer spectrophotometer (IMPLEN, CA, USA), and RNA integrity and quantitation were assessed using the RNA Nano 6000 Assay Kit of the Bioanalyzer 2100 system (Agilent Technologies, CA, USA).
HTSeq v0.6.1 was used to count the read numbers mapped to each gene, and then FPKM of each gene was calculated based on the length of the gene and reads count mapped to this gene. FPKM, […] Per Kilobase of exon model per Million mapped reads, considers the effect of sequencing depth and gene length for the reads count at the same time, and is currently the most commonly used method for estimating gene expression levels ([Mortazavi et al., 2008]).
Differential expression analysis between two conditions/groups (with biological replicates) was performed using the DESeq2 R package (2_1.6.3). DESeq2 provide statistical routines for determining differential expression in digital gene expression data using a model based on the negative binomial distribution. The resulting p values were adjusted using the Benjamini and Hochberg's approach for controlling the False Discovery Rate (FDR). Genes with an adjusted p value of <0.05 found by DESeq2 were assigned as differentially expressed.

[6] = biological target: 6x His-14-3-3ε (full length human 14-3-3ε) (human) (UniProt P62258); experiment: ITC; 24 μM 14-3-3ε in the cell titrated with 360 μM TAMRA-9J10; 25°C; 50 mM HEPES, 150 mM NaCl, 0.5 mM DTT; one set of sites model
[7] = GFP-FOXO3a-AAA vs GFP, adjusted p <0.05

“6x His-14-3-3ε (full length human 14-3-3ε) (from UniProt P62258 1-255) (natural protein)” was tested. Which Kd [1] did it give?
Its Kd is 1470 nM.

For Oc1cccc(-c2nc(N3CCOCC3)c3oc4ncccc4c3n2)c1 [PI-103], which “nuclear translocation of GFP-FOXO3a” value ([2]; 1 μM PI-103, positive control) is on record?
The value was “high degree of nuclear translocation of GFP-FOXO3a”.

CCC(=C/[C@H](C)C/C=C/C(C)=C/[C@@H](C)C(=O)[C@@H](C)[C@H](O)[C@@H](C)C/C(C)=C/C(=O)O)/C=C/[C@@H]1OC(=O)C=C[C@@H]1C [leptomycin B] was tested. Which “relocalization of GFP-FOXO3a to the nucleus” value ([2]; U2OS-GFP-FOXO3a, 3 hr treatment, Figure 1A: PI-103 1 μM, GSK690693 1 μM, leptomycin 2 nM) did it give?
The value was “can be relocalized to the nucleus”.

CC(C)C[C@H](N)C(=O)N[C@@H](CC(N)=O)C(=O)N[C@@H](CCCNC(=N)N)C(=O)N[C@H](C(=O)N1CCC[C@H]1C(=O)NCC(=O)N[C@@H](CCCNC(=N)N)C(=O)N[C@@H](CCCNC(=N)N)C(=O)N[C@@H](CCCNC(=N)N)C(=O)N[C@@H](CC(N)=O)C(=O)N[C@@H](COP(=O)(O)O)C(=O)N[C@@H](CC(N)=O)C(=O)O)[C@@H](C)O [unlabeled 9J10-derived phosphopeptide] was tested. Which IC50 (9J10/14-3-3ε interaction) did it give?
Its IC50 is 9800 ± 1200 nM.

B1: Unlabelled 9J10 peptide (…(p-Serine)N-acid) (peptide)
peptide: LNRTPGRRRNSN
HELM: PEPTIDE1{L.N.R.T.P.G.R.R.R.N.[O=C([C@H](COP(=O)(O)O)N[*:1])[*:2]].N}$$$$V2.0; N-terminus assumed
SMILES: CC(C)C[C@H](N)C(=O)N[C@@H](CC(N)=O)C(=O)N[C@@H](CCCNC(=N)N)C(=O)N[C@H](C(=O)N1CCC[C@H]1C(=O)NCC(=O)N[C@@H](CCCNC(=N)N)C(=O)N[C@@H](CCCNC(=N)N)C(=O)N[C@@H](CCCNC(=N)N)C(=O)N[C@@H](CC(N)=O)C(=O)N[C@@H](COP(=O)(O)O)C(=O)N[C@@H](CC(N)=O)C(=O)O)[C@@H](C)O
For B1, which IC50 [3] is on record?
The IC50 was 9800 nM.

What about the EC80 [4] of the same molecule?
Its EC80 is 1000 nM.

B2: GFP-FOXO3a-AAA: constitutively active GFP-tagged FOXO3a mutant (protein, UniProt O43524 1-673, looked up, variant T32A S253A S315A)
Forkhead box protein O3: MAEAPASPAPLSPLEVELDPEFEPQSRPRSCAWPLQRPELQASPAKPSGETAADSMIPEEEDDEDDEDGGGRAGSAMAIGGGGGSGTLGSGLLLEDSARVLAPGGQDPGSGPATAAGGLSGGTQALLQPQQPLPPPQPGAAGGSGQPRKCSSRRNAWGNLSYADLITRAIESSPDKRLTLSQIYEWMVRCVPYFKDKGDSNSSAGWKNSIRHNLSLHSRFMRVQNEGTGKSSWWIINPDGGKSGKAPRRRAVAMDNSNKYTKSRGRAAKKKAALQTAPESADDSPSQLSKWPGSPTSRSSDELDAWTDFRSRTNANASTVSGRLSPIMASTELDEVQDDDAPLSPMLYSSSASLSPSVSKPCTVELPRLTDMAGTMNLNDGLTENLMDDLLDNITLPPSQPSPTGGLMQRSSSFPYTTKGSGLGSPTSSFNSTVFGPSSLNSLRQSPMQTIQENKPATFSSMSHYGNQTLQDLLTSDSLSHSDVMMTQSDPLMSQASTAVSAQNSRRNVMLRNDPMMSFAAQPNQGSLVNQNLLHHQHQTQGALGGSRALSNSVSNMGLSESSSLGSAKHQQQSPVSQSMQTLSDSLSGSSLYSTSANLPVMGHEKFPSDLDLDMFNGSLECDMESIIRSELMDADGLDFNFDSLISTQNVVGLNVGNFTGAKQASSQSWVPG
modifications: GFP tag
Which “number of downregulated genes” value [5, 7] does the source give for B2 here?
The value was 2,569 genes.

What about the “number of upregulated genes” value [5, 7] of the same molecule?
Its value is 3,026 genes.

And the “CDKN1A (p21^Cip1) expression” value ([5]; HEK293T)?
Its value is “upregulated”.

What about the “CDKN1B (p27^Kip1) expression” value ([5]; HEK293T) of the same molecule?
The value was “upregulated”.

B3: TAMRA-9J10 peptide (5-TAMRA-…(p-Serine)N-acid) (peptide)
peptide: LNRTPGRRRNSN
HELM: PEPTIDE1{[CN(C)c1ccc2c(-c3ccc(C(=O)[*:2])cc3C(=O)[O-])c3ccc(N(C)C)cc3[o+]c2c1].L.N.R.T.P.G.R.R.R.N.[O=C([C@H](COP(=O)(O)O)N[*:1])[*:2]].N}$$$$V2.0
SMILES: CC(C)C[C@H](NC(=O)c1ccc(-c2c3ccc(N(C)C)cc3[o+]c3cc(N(C)C)ccc23)c(C(=O)[O-])c1)C(=O)N[C@@H](CC(N)=O)C(=O)N[C@@H](CCCNC(=N)N)C(=O)N[C@H](C(=O)N1CCC[C@H]1C(=O)NCC(=O)N[C@@H](CCCNC(=N)N)C(=O)N[C@@H](CCCNC(=N)N)C(=O)N[C@@H](CCCNC(=N)N)C(=O)N[C@@H](CC(N)=O)C(=O)N[C@@H](COP(=O)(O)O)C(=O)N[C@@H](CC(N)=O)C(=O)O)[C@@H](C)O
With B3 as the molecule, how does the Kd [6] read?
The Kd was 700 nM.
